The text below walks through data of publication PMC9249833.

This experiment addresses HisTmod (His-tagged recombinant AjTmod) (Apostichopus japonicus). Description: MST; Monolith NT.115; His-tagged AjTmod labelled with NT-647-NHS (about 5 uM), 16 serial concentrations of the unlabelled partner; 50 mM Tris-HCl pH 8.0, 0.02% Tween 20; 25 °C; three repeats.

One may read the Kd as the concentration at which binding is half-saturated. Take “GSTFliC fusion protein (GST-fused Vibrio splendidus AJ01 flagellin C) (natural protein)”: the Kd stood at 8.6 nM.
